The values below come from the emibetuzumab library of Makowski et al. (2022).

To fix the notation:
B1: VH:VL chains; a variant is named by its letters at X, in order (parent)
chain 1: QVQLVQSGAEVKKPGASVKVSCKASGYTFTDYXMHWVRQAPGQGLEWMGXVNPNXXXTTYNQKFEGRVTMTTDTSTSTAYMELRSLRSDDTAVYYCARXNXLDXWGQGTTVTVSS
chain 2: DIQMTQSPSSLSASVGDRVTITCSVSSSVSSIYLHWYQQKPGKAPKLLIYSTSNLASGVPSRFSGSGSGTDFTLTISSLQPEDFATYYCQVYSGYPLTFGGGTKVEIK

In the series the parent is B1. Description: yeast display scFab, FACS + sequencing. The gist of the method:
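The non-specific binding call was based on sorted and sequenced yeast displaying a heavy-chain CDR mutant scFab library. Labelling used anti-Myc with biotinylated ovalbumin (260 μg/mL in PBSB, 3 h, room temperature) or soluble membrane proteins (130 μg/mL, 20 min on ice), and FACS collected the top 25% and bottom 10% of binders in two replicates. Positive meant present in ≥3 of 4 pooled positive samples and in no negatives, and negative meant the converse.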
Take VTGTSDLY: the non-specific binding call is recorded as “no binding”. To VTKAASWV belongs “no binding”. To VTGRAALA belongs “no binding”; to DTKAASGV, “no binding”. For YTRGAASD, the non-specific binding call was “no binding”.

Turning to YTGRGSAA, the non-specific binding call is listed as “binds”. To DTREGDGA belongs “no binding”; to FTGRGAAA, “binds”; to ATGRASLD, “no binding”. As for DTKAASWV, the non-specific binding call was “no binding”. To DTKAASWA belongs “no binding”; to VTREGAVA, “no binding”.

VTGTSSLD: the non-specific binding call is reported as “no binding”. Take YTRGASLD: the non-specific binding call was “no binding”. To ATGGGYVA belongs “binds”; to YTGTSAWA, “no binding”; to DTREGAVV, “no binding”. Turning to YTKGTSVA chain 1 E65K, the non-specific binding call is “binds”. On to VTGGDYAV, for which the non-specific binding call was “no binding”. On to STGGGDGV, for which the non-specific binding call is given as “no binding”. For VTKTGDAV, the non-specific binding call was “no binding”. As for YTGRAALA, the non-specific binding call is “no binding”. Regarding VTGTGDAD, the non-specific binding call is given as “no binding”.

Regarding VTGTGDAV, the non-specific binding call is “no binding”. Regarding YTKRSSGA, the non-specific binding call is listed as “binds”.

Regarding YTRGADWY, the non-specific binding call is reported as “no binding”. In the case of YTRGADWA, the non-specific binding call is on record as “no binding”.

Turning to YTGTSSLD, the non-specific binding call is given as “no binding”. As for FTKASYVY, the entry is “binds”; as for ATGRADVY, “no binding”.

Take VTGTGDWV: the non-specific binding call was “no binding”. As for VTGTGDWF, the entry is “no binding”. As for YTKTSSVD, the entry is “binds”.

On to ATGRADGV, for which the non-specific binding call is given as “no binding”. To STGTGALA belongs “no binding”. Consider VTGTGSVD, for which the non-specific binding call is “no binding”.

On to DTREGDAV, for which the non-specific binding call is “no binding”. To YTRGADVA belongs “no binding”; to YTRGADVV, “no binding”; to FTRESFAA, “binds”.

With VTGGDDWY, the non-specific binding call was “no binding”.

On to VTGGDDWF, for which the non-specific binding call is listed as “no binding”. As for VTGGDDWV, the entry is “no binding”; as for VTGTGDVV, “no binding”.

For the variant VTGTGDVY, the non-specific binding call is given as “no binding”. As for FTKGSAGY, the entry is “binds”; as for DTGTGSWD, “no binding”; as for STGGDDGF, “no binding”. To FTGTSDLY belongs “no binding”; to VTKTGAAA, “no binding”. As for YTRGASGA, the entry is “no binding”. On to VTGGGASF, for which the non-specific binding call was “no binding”. As for VTGRGDLA, the entry is “no binding”; as for YTKAASWV, “no binding”.

Turning to STKAASWV, the non-specific binding call is “no binding”. STGGDDVY: the non-specific binding call is “no binding”. VTGTGDGV: the non-specific binding call is given as “no binding”.

In the case of VTGTGDGA, the non-specific binding call is reported as “no binding”.

For STGRADWA, the non-specific binding call is “no binding”. As for ATGGDSGD, the entry is “no binding”; as for STGKGSGV, “no binding”; as for DTKRTAVA, “binds”.

Consider FTGRAAAV, for which the non-specific binding call was “no binding”. With DTGTGDAA, the non-specific binding call was “no binding”.

FTGTSAAF: the non-specific binding call is “binds”. As for YTGTSDVS, the entry is “no binding”.

On to YTGTSDVY, for which the non-specific binding call was “no binding”. As for YTGTSSGA, the entry is “no binding”; as for VTGGDSVD, “no binding”; as for STKRSFWA, “binds”.

DTGTSDLY: the non-specific binding call is reported as “no binding”.

For the variant DTKAAAGD, the non-specific binding call was “no binding”. On to DTGTGASD, for which the non-specific binding call is “no binding”. Take FTGTGSGA: the non-specific binding call was “no binding”. As for VTKETFSF, the entry is “no binding”. As for ATRGADAV, the non-specific binding call is recorded as “no binding”.

Regarding YTGTSSAD, the non-specific binding call was “no binding”. As for VTGGDDGY, the entry is “no binding”.

On to FTREASAV, for which the non-specific binding call is reported as “binds”. With YTGTGSGA, the non-specific binding call was “no binding”. To FTRAGAAA belongs “binds”. With YTGTSSSA, the non-specific binding call was “no binding”. As for YTGTSSSV, the entry is “no binding”. As for VTKTGDVA, the entry is “no binding”. To DTKRTAGD belongs “no binding”; to YTGGNDAD, “no binding”. Consider YTGGDSVA, for which the non-specific binding call was “no binding”.

Regarding YTGGDSVD, the non-specific binding call is given as “no binding”.

Consider YTRAGSAA, for which the non-specific binding call is recorded as “binds”. Turning to STGGNDAD, the non-specific binding call is on record as “no binding”. To DTKAASSS belongs “no binding”; to DTKAASSA, “no binding”. Take VTGGSDVY: the non-specific binding call is given as “no binding”. As for YTGTSAGV, the entry is “no binding”; as for YTGTSAGD, “no binding”; as for DTGTGDVF, “no binding”. To DTGTGDVA belongs “no binding”; to DTGTGALV, “no binding”; to ATGGDDWF, “no binding”. To YTKKTFSY belongs “binds”; to FTGRGAVA, “binds”; to VTGTGAVV, “no binding”. Consider VTGTGAVY, for which the non-specific binding call is recorded as “no binding”. As for YTKRSAVV, the entry is “binds”. To VTGRAAWV belongs “no binding”; to DTKGDSVS, “no binding”; to DTGRGSGV, “no binding”. To DTGGSASA belongs “no binding”; to YTGTSASD, “no binding”.

For YTGGDDVV, the non-specific binding call was “no binding”.

On to YTGGDDVD, for which the non-specific binding call is listed as “no binding”.

Take YTGGDDVY: the non-specific binding call is “no binding”. In the case of DTREGDVY, the non-specific binding call is recorded as “no binding”.

Take DTREGDVA: the non-specific binding call is “no binding”. As for DTREGDVD, the entry is “no binding”; as for DTGKDAGD, “no binding”; as for YTKTGDAV, “no binding”. Take VTGGDSSD: the non-specific binding call was “no binding”. To VTGGDSSA belongs “no binding”; to VTGTGAGV, “no binding”; to VTGTGAAV, “no binding”. To VTGTGAAD belongs “no binding”.

As for DTGTGDGV, the non-specific binding call is given as “no binding”. As to YTGRGSGV, the non-specific binding call was “binds”.

As for YTRGASSS, the non-specific binding call is on record as “no binding”.

Take ATGRADWA: the non-specific binding call is given as “no binding”.

With YTGKSVAV, the non-specific binding call is “binds”. On to VTGKGDGV, for which the non-specific binding call was “no binding”. VTRGADGV: the non-specific binding call was “no binding”.

Consider DTGTGAGD, for which the non-specific binding call was “no binding”. To DTGTGAGV belongs “no binding”.

With DTGTGDSA, the non-specific binding call is on record as “no binding”. To VTGGDDVY belongs “no binding”.

Take VTGRGDVF: the non-specific binding call is on record as “no binding”. To VTGRGDVA belongs “no binding”; to STGTGYVF, “no binding”; to YTGRGSLD, “binds”. As for FTRGADAV, the entry is “no binding”. As for YTRGAAGV, the entry is “no binding”; as for YTRGAAGY, “no binding”. On to FTKAASWV, for which the non-specific binding call was “no binding”. Consider STGRAALA, for which the non-specific binding call is reported as “no binding”. As for YTGTSDAV, the entry is “no binding”. Consider YTRGADGA, for which the non-specific binding call is “no binding”. To YTRGADGS belongs “no binding”.

Take YTRGADGV: the non-specific binding call is reported as “no binding”. As to DTGTGDWV, the non-specific binding call is on record as “no binding”.

As for VTGTGYVF, the non-specific binding call was “no binding”. To DTGTGSVD belongs “no binding”; to VTGGDSAS, “no binding”; to DTGTGSSA, “no binding”. For the variant YTKETAAD, the non-specific binding call is recorded as “binds”. As for YTGTSDLD, the entry is “no binding”; as for YTGTSDLA, “no binding”; as for YTGTSDLV, “no binding”.

Turning to VTKGGSSA, the non-specific binding call is on record as “no binding”. Consider YTKRGDWD, for which the non-specific binding call is “binds”.

In the case of DTGGGAWD, the non-specific binding call was “no binding”. As to DTGRADWA, the non-specific binding call was “no binding”. In the case of ATKTAFVS chain 1 M34I, the non-specific binding call is on record as “no binding”. On to DTKAADVA, for which the non-specific binding call is “no binding”. As for YTGTGAVF, the entry is “no binding”; as for STGTSDLY, “no binding”. On to YTGGDDWV, for which the non-specific binding call is on record as “no binding”. Regarding YTGTSAVV, the non-specific binding call is “no binding”. As for YTGTSAVS, the entry is “no binding”. As for YTGTSAVA, the entry is “no binding”; as for FTGRAYGF, “binds”. As for DTGGDDWF, the entry is “no binding”; as for DTGGGDLA, “no binding”; as for YTREGAVA, “no binding”.

Take DTKAADWV: the non-specific binding call is listed as “no binding”. On to DTKAADWY, for which the non-specific binding call was “no binding”. As for DTGGGAGA, the non-specific binding call is “no binding”.

On to ATGRAAGD, for which the non-specific binding call is listed as “no binding”. As for YTRGASWV, the entry is “no binding”; as for VTGTASSV, “no binding”; as for VTGTGSSA, “no binding”. In the case of VTGTGSSD, the non-specific binding call was “no binding”. To YTKRGSAA belongs “binds”; to VTGTGSLV, “no binding”; to VTGTGSLD, “no binding”. To DTRGADAV belongs “no binding”. As for VTRGASGA, the entry is “no binding”. As for FTGRGSAD, the non-specific binding call is recorded as “binds”. As for YTKEASGY, the entry is “binds”; as for YTRGAAVA, “no binding”; as for DTKAADGV, “no binding”. To DTGTGSGA belongs “no binding”; to DTGTSAAF, “binds”; to VTKESAAV, “no binding”. In the case of YTGGGDGV, the non-specific binding call is given as “no binding”. On to YTRGADLA, for which the non-specific binding call was “no binding”.

On to ATGTGSGA, for which the non-specific binding call is listed as “no binding”.

As to YTRAGAAA, the non-specific binding call is listed as “binds”. With YTRGAALA, the non-specific binding call is recorded as “no binding”. STRGADAV: the non-specific binding call is given as “no binding”.

With VTGGDSWF, the non-specific binding call was “no binding”. Turning to VTGGDSLV, the non-specific binding call is “no binding”. As for VTGGGDGA, the entry is “no binding”. As for VTGGGDGS, the entry is “no binding”; as for VTGGDSGD, “no binding”. Regarding VTGGDDSA, the non-specific binding call is reported as “no binding”. As for STGTSDVF, the entry is “no binding”; as for ATKGAAVA, “no binding”.

As to FTGRGAGV, the non-specific binding call is recorded as “binds”. For the variant VTGTGSGF, the non-specific binding call is “no binding”. To VTGTGSGD belongs “no binding”; to STGTGSGA, “no binding”.

As to DTGGGDAV, the non-specific binding call was “no binding”. To DTGGGDAA belongs “no binding”; to DTGGGDAY, “no binding”; to VTGTSDVA, “no binding”.

With YTGTSDWV, the non-specific binding call is listed as “no binding”. As to YTGTSDWY, the non-specific binding call was “no binding”. As for DTKAAAVV, the non-specific binding call was “no binding”. On to VTRGADAV, for which the non-specific binding call is “no binding”. For the variant VTRGADAA, the non-specific binding call is on record as “no binding”. To ATKAASWV belongs “no binding”; to YTGTSDGV, “no binding”.
